Test results reported in patent US20060165707A1.

Key:
[1] = molecular target: … / HLA-A2 / β2m K58→E on T2 cells (human)
[2] = molecular target: … / HLA-A2 / wild-type β2m on T2 cells (human)

“HLA-A2 restricted parvovirus B19 specific CTL line (cells without a defined receptor)” was tested, and the specific lysis (51Cr release), E:T 22:1, 4 hours [1] was 2.6% and the specific lysis (51Cr release), E:T 22:1, 4 hours [2] was 7.3%.
